According to patent US20220047712A1 (FORTIS THERAPEUTICS, published 2022):

Biological target: T1, CD46 (human, UniProt P15529 35-392)
T1 construct: whole, on cells; also called CD46 complement regulatory protein; cluster of differentiation 46
T1 sequence (looked up): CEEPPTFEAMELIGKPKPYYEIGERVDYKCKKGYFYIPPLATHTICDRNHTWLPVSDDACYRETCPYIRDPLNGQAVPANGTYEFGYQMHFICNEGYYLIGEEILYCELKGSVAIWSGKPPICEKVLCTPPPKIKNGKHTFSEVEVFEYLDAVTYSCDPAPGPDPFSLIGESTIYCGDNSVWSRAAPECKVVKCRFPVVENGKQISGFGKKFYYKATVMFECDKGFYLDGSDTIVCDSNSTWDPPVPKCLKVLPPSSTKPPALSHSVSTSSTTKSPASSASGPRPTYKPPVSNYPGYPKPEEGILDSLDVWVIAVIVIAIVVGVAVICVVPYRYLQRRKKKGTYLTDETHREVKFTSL
Assay: flow cytometry on cells, YS5FL at 10 µg/mL, AlexaFluor-488 anti-human IgG1 Fc secondary
Experimental: Cell surface CD46 was detected by flow cytometry. Cells were harvested, centrifuged and resuspended in FACS buffer (PBS+2% FBS) at a concentration of 1×10⁶ cells/mL. 100 μL of cell suspension was dispensed into each well of a 96-well plate, 100 μL of YS5FL at 10 μg/mL was added to the wells and incubated for 1 hour at 4° C. The cells were washed three times with FACS buffer. After the third wash, the cells were resuspended in 100 μL 1:500 diluted AlexaFluor-488 mouse anti-Human IgG1 Fc secondary antibody and incubated for 1 hour at 4° C. in the dark. The cells were washed three times with 200 μL PBS by centrifuging at 2000 RPM for 5 minutes. After the last wash, the cells were resuspended in 300 μL cold PBS and analyzed on a FACSVerse™ (BD Biosciences) flow cytometer. YS5FL bound specifically to the surface of LnCap-C4-2B, LnCap-C4, DU145, PC3-luc, and Hs27 prostate cancer cells, but not to non-tumor BPH1 cells. FIG. 1. Likewise, YS5FL bound specifically to the surface of RPMI8226, MM.1S, MM.1R, and INA6 multiple myeloma cells. FIG. 2.

B1: YS5FL (antibody, human IgG1, lambda, V domains shown)
VH: QVQLVQSGGGVVQPGRSLRLACAASGLTVNNYAMHWVRQAPGKGLEWVAVISYDGNNKYYADSVKGRFTISRDNSKNTLYLQMNSLRAEDTAVYYCAKGGGYFDLWGRGTLVTVSS
VL: QSVLTQPPSVSGAPGQRVTISCTGSSSNIGAGYDVHWYQQLPGTAPKLLIYGNNNRPSGVPDRFSGSKSGTSASLAITGLQAEDEADYYCSSYTSGTWLFGGGTKLTVLG
notes: FOR46 is this antibody conjugated to MMAE via mc-vc-PAB; also called anti-CD46 YS5FL antibody; YS5FL mAb
binding result: binds
